Measurements taken from patent US20150376286A1 (Amgen, published 2015).
Where a chain is given by its changes, count along the chain named. One block for each binder: values may come before it.

Assays:
[1] = target: T1, soluble CGRP receptor-muFc fusion protein (human); assay: Western blot
T1 construct: also called CGRP R-muFc; not shown: mouse Fc
T1 chain 1: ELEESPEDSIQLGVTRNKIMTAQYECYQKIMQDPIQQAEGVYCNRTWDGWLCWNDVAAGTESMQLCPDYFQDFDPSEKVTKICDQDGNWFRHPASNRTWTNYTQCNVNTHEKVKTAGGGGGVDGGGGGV
T1 chain 2: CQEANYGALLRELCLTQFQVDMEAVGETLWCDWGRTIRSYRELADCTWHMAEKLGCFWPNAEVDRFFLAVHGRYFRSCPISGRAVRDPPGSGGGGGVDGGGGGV
Method: The sample containing βME was then boiled for 4 min. […] Gels were electroblotted onto 0.2 μm nitrocellulose filters (Invitrogen). The blots were washed with Tris-buffered saline+1% Tween 20 (TBST) and then blocked with TBST+5% powered dry milk for 30 min. The blots were cut into strips along the molecular weight marker lanes. […] Blots were incubated with the antibodies for one hour followed by 3×10 min washes with TBST+1% milk. The blots treated with the huCGRP R antibodies were then incubated with goat anti-mouse IgG-Fc-HRP (1:10,000 in TBST+1% milk) and the blots treated with anti-huRAMP1 (N-20 anti-RAMP1 goat polyclonal antibody, Santa Cruz Biotech, CA) were incubated with rabbit anti-goat IgG-Fc-HRP (1:10,000) for 20 min. Blots were washed 3×15 min with TBST. The huCGRP R and anti-huRAMP1 antibody blots were treated with Pierce Supersignal West Pico Detection reagent, and the anti-mouse and anti-human IgG-Fc-HRP blots were treated with Pierce standard Detection Reagent (1 min.). Blots were then exposed with Kodak Biomax MS X-ray film.

[2] = target: T2, cynomolgus CGRP receptor (cynoCRLR + cynoRAMP1) (cynomolgus monkey); assay: cell-based or functional assay
T2 chain 1: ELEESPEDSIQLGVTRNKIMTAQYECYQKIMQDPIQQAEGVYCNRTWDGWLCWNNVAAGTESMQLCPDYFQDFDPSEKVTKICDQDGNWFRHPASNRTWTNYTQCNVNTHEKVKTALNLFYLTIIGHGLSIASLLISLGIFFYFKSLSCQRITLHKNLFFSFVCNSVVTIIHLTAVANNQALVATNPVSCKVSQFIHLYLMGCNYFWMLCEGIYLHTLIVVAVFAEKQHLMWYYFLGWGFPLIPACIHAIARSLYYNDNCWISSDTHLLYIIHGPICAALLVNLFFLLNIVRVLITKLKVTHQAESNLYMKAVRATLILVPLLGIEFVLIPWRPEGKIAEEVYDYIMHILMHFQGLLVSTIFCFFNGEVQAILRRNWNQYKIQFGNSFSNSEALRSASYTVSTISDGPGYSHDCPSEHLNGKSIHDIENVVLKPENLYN
T2 chain 2: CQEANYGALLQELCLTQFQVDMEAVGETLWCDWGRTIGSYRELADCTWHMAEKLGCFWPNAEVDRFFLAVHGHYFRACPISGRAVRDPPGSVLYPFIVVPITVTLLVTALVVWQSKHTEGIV

[3] = target: rat CGRP receptor (rat, UniProt Q63118 24-464; Q9JJ74 27-148); assay: cell-based or functional assay
[4] = target: human amylin AMY1 receptor (hCTR + hRAMP1) (human, UniProt P30988 25-474); assay: cell-based or functional assay
[5] = target: human adrenomedullin receptor 1 (hCRLR + hRAMP2) (human, UniProt O60895 43-175); assay: cell-based or functional assay
[6] = target: human adrenomedullin receptor 2 (hCRLR + hRAMP3) (human, UniProt O60896 24-148); assay: cell-based or functional assay
[7] = target: T3, human CGRP receptor (CRLR + RAMP1) (human, UniProt Q16602 23-461; O60894 27-148); assay: FACS on transfected 293-6E cells
T3 construct: also called hCGRP R; huCGRP R
Method: (§1) Cells were harvested after 72 hr, washed with PBS+0.5% BSA, and counted. Each transfected cell line was resuspended at a dilution of 5×10⁵ cells per 100 μl PBS/BSA. 100 μl of cell suspension was aliquot per well in a 96-well round-bottom plate (Falcon). The cells were pelleted at 1200 rpm for 5 min. […] Cells were incubated on ice for 1 hr. and then washed twice with PBS/BSA. […] Cells were incubated on ice in the dark for 1 hr. and then washed twice with PBS/BSA. Cells were resuspended in 200 μl PBS/BSA and analyzed using a FACS Calibur.

[8] = target: T4, chimeric CGRP receptor: CRLR wt + RAMP1 chimera #2 (Q43 to E53) (human; human/rat chimera, UniProt Q16602 23-461; O60894 27-148); assay: FACS on transfected 293-6E cells
T4 construct: also called CRLR wt+RAMP1 Q43-E53
T4 chain 1: T2 chain 1 with N55D, V431L
T4 chain 2: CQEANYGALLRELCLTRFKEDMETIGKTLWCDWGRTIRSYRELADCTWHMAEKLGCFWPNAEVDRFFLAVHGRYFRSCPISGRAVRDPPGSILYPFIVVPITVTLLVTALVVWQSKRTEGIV
Method: as §1

[9] = target: T5, chimeric CGRP receptor: CRLR wt + RAMP1 chimera #3 (R67 to E78) (human; human/rat chimera, UniProt Q16602 23-461; O60894 27-148); assay: FACS on transfected 293-6E cells
T5 construct: also called CRLR wt+RAMP1 R67-E78
T5 chain 1: T2 chain 1 with N55D, V431L
T5 chain 2: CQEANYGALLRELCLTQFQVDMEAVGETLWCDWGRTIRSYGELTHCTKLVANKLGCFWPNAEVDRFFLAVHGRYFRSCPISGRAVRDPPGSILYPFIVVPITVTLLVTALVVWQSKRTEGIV
Method: as §1

[10] = target: T6, chimeric CGRP receptor: CRLR chimera #1 (L24 to Q33) + RAMP1 wt (human/rat chimera; human, UniProt Q16602 1-461; O60894 27-148); assay: FACS on transfected 293-6E cells
T6 construct: also called CRLR L24-Q33+RAMP wt
Method: as §1

[11] = target: T3, human CGRP receptor (CRLR + RAMP1); assay: cell-based or functional assay
[12] = target: T3, human CGRP receptor (CRLR + RAMP1); assay: 125I-CGRP competition binding, HTB-10 cell membranes
Method: The plates were incubated at room temperature for 2 hours with shaking at 60 rpm, and then the contents of each well were filtered over 0.5% polyethyleneimine (PEI)-treated (for at least one hour) GF/C 96-well filter plates. The GF/C filter plates were washed six times with ice-cold 50 mM Tris, pH 7.5 and dried in an oven at 55° C. for 1 hour. The bottoms of the GF/C plates were then sealed. 40 μl Microscint™ 20 was added to each well, the tops of the GF/C plates were sealed with TopSeal™-A (a press-on adhesive sealing film), and the GF/C plates were counted with TopCount NXT (Packard). The data were analyzed using Prizm (GraphPad Software Inc.)

[13] = target: T3, human CGRP receptor (CRLR + RAMP1); assay: FACS on AM-1 CHO huCGRP R cells, KinExA n-curve analysis
Method: (§2) Briefly, AM-1 CHO huCGRP R-expressing cells, prepared as described above, were plated in 96-well plates at densities of 16,000 or 160,000 cells per well in DMEM medium containing 10% FBS, NEAA, PS, L Glut, NaPyr and 0.05% sodium azide. […] After an overnight incubation at 4° C. in a total volume of 120 μl, on a plate shaker, the cells were washed 2× with PBS+2% FBS, centrifuging and discarding supernatant each time. 100 μl/well of G anti-Hu Fc Cy5 (5 μg/mL; Jackson ImmunoResearch Laboratories Inc., West Grove, Pa., USA) containing 7AAD (5 μl/well) was then added and incubated at 4° C. for 40 min. The cells were washed 2× with PBS+2% FBS, centrifuging and discarding the supernatant each time. 100 μl PBS+2% FBS buffer was then added and analyzed by FACS to determined the binding geomean. The Kd was calculated using KinExA software by taking the negative geomean at each antibody concentration as the amount of free Ab present Rathanaswami, et al., Biochemical and Biophysical Research Communications 334 (2005) 1004-1013.

[14] = target: T3, human CGRP receptor (CRLR + RAMP1); assay: FACS Kd determination on AM-1 CHO huCGRP R cells; left-hand curve, cell density not labelled on the sheet
Method: as §2

[15] = target: T3, human CGRP receptor (CRLR + RAMP1); assay: FACS Kd determination on AM-1 CHO huCGRP R cells; right-hand curve, cell density not labelled on the sheet
Method: as §2

binding result [1]: binds
cAMP assay IC50 [2]: 2.22 nM
cAMP assay IC50 [3]: > 1000 nM
cAMP assay IC50 [4]: > 1000 nM
cAMP assay IC50 [5]: > 1000 nM
cAMP assay IC50 [6]: > 1000 nM
B1: 3B6 (antibody, human IgG2, lambda, V domains shown)
VH: not shown
VL: SSELTQDPTVSVALGQTVKITCQGDSLRSFYASWYQQKPGQAPVLVFYGKNNRPSGIPDRFSGSSSGNTASLTITGAQAEDEADYYCNSRDSSVYHLVLGGGTKLTVLG
notes: also called 03B6; 03B6.2

binding result [7]: binds
binding result [8]: binds
binding result [9]: binds
binding result [10]: binds
B2: 33B5 (antibody, V domains shown)
VH: not shown
VL: DIQMTQSPSSLSASVGDRVTITCRASQGIRNDLGWYQQKPGKAPKRLIYVASSLQSGVPSRFSGSGSGTEFTLTISSLQPEDFATYYCLQYNTYPLTFGGGTKVEIK

cAMP assay IC50 [11]: 2.14 nM
cAMP assay IC50 [2]: 2.74 nM
cAMP assay IC50 [3]: > 1000 nM
cAMP assay IC50 [4]: > 1000 nM
cAMP assay IC50 [5]: > 1000 nM
cAMP assay IC50 [6]: > 1000 nM
Ki [12]: 0.017 nM
Kd [13]: 1.4 nM
EC50 (read off the curve) [14]: ~2 nM
EC50 (read off the curve) [15]: ~8 nM
B3: 12G8 (antibody, human IgG2, lambda, V domains shown)
VH: QVQLVESGGGVVQPGRSLRLSCAASGFTFSSFGMHWVRQAPGKGLEWVAVISFDGSIKYSVDSVKGRFTISRDNSKNTLFLQMNSLRAEDTAVYYCARDRLNYYDSSGYYHYKYYGLAVWGQGTTVTVSS
VL: QSVLTQPPSVSAAPGQKVTISCSGSSSNIGNNYVSWYQQLPGTAPKLLIYDNNKRPSGIPDRFSGSKSGTSATLGITGLQTGDEADYYCGTWDSRLSAVVFGGGTKLTVLG
notes: also called 12G8.2

binding result [1]: binds
cAMP assay IC50 [2]: 3.52 nM
cAMP assay IC50 [3]: > 1000 nM
cAMP assay IC50 [4]: > 1000 nM
cAMP assay IC50 [5]: > 1000 nM
cAMP assay IC50 [6]: > 1000 nM
B4: 4E4 (antibody, human IgG2, lambda, V domains shown)
VH: B3 VH with L117M
VL: B3 VL with A72T
notes: also called 04E4; 04E4.2
